According to patent publication US20090092595A1, “Suppression of sPLA2-integrin binding for treating an inflammatory condition” (REGENTS OF THE UNIVERSITY OF CALIFORNIA, priority 2007, published 2009):

Key:
integrin α4β1 = biological target: T1, integrin α4β1 (Homo sapiens, UniProt P05556+P13612); test: Adhesion of α4-K562 cells (recombinant α4β1) to immobilized sPLA2-IIA; assay type: cell-based; details: compared with mock-transfected K562 cells
T1 construct: K562 cells have endogenous α5β1; expressed in transfected cells; host or cells: K562
T1 sequence (P13612 34-1032): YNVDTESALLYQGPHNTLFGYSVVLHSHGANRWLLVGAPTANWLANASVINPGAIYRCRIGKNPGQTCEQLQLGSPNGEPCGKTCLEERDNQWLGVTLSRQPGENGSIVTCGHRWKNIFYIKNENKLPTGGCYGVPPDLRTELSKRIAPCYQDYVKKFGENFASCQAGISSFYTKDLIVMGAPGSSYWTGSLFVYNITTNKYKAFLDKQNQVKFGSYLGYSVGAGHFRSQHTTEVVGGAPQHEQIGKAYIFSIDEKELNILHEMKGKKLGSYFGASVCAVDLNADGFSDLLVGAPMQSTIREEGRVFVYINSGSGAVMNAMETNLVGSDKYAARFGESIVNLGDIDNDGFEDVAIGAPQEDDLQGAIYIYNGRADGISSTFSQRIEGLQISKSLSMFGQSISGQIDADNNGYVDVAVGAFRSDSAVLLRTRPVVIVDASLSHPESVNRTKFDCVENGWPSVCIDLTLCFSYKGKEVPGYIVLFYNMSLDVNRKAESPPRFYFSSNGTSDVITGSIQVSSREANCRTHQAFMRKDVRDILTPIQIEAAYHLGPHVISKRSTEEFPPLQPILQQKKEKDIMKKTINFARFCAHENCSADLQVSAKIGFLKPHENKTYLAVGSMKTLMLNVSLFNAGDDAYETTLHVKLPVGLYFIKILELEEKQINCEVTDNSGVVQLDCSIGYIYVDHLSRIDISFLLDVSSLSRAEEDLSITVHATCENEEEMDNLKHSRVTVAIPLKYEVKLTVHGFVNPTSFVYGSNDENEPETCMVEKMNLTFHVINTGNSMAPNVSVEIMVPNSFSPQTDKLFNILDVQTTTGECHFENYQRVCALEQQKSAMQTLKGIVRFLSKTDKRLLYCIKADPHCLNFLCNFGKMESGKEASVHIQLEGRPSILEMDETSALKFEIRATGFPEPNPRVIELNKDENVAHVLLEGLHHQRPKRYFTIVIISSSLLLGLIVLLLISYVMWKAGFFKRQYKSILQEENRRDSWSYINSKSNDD
T1 sequence (P05556 21-798): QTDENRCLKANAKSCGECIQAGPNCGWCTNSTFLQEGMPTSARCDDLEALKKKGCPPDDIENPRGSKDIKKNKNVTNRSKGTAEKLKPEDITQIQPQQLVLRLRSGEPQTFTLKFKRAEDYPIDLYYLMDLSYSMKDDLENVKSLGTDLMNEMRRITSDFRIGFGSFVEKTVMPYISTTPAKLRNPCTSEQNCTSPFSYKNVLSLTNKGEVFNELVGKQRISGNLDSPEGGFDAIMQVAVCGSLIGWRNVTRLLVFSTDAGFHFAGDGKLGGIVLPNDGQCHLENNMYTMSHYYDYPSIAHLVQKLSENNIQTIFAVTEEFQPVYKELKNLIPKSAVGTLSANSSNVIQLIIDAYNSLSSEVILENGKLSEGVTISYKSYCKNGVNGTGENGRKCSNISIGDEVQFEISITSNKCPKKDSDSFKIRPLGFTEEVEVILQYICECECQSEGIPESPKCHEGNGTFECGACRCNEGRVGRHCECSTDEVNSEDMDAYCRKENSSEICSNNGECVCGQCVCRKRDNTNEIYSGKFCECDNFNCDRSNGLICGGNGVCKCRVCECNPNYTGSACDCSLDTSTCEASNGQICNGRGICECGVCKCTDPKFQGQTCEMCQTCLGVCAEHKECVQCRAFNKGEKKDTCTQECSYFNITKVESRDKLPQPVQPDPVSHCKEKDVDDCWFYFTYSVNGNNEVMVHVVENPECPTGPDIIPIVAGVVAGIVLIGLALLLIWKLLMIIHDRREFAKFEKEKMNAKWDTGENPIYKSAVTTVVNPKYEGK
Description: (§1) FIG. 5. sPLA2-IIA binding to integrin α4β1. a) Cells expressing recombinant α4β1 adhered to wt sPLA2-IIA better than cells expressing other recombinant integrins. We used transfected K562 cells clonally express different human integrins for adhesion assays. Low background adhesion to BSA was subtracted. […] Wells of 96-well microtiter plate were coated with VCAM-1 and FN-GST, and incubated with U937 cells (1×10^4 cells/plate) in the presence of the increasing concentrations of sPLA2-IIA for 1 h at 37° C. Adherent cells were quantified using endogenous phosphatase after gently rinsing the well to remove unbound cells. Data is shown as means+/−SEM of triplicate experiments. *P=0.0101 and **P<0.0001 by t-test. c) Amino acid sequence in the α4 subunit that is critical for VCAM-1 and CS-1 binding is also critical for sPLA2-IIA binding. CHO cells that clonally express wt or mutant α4 (Irie, A. et al., Embo J, 14(22): 5550-5556 (1995)) were used for adhesion assays. Data is shown as means+/−SEM of triplicate experiments. Similar results were obtained using K562 cells expressing α4 mutants (not shown).
(§2) Other methods We performed docking simulation of interaction between sPLA2-IIA and integrin αvβ3 using the AutoDock3 as previously described (Mori, S. et al., J Biol Chem, in press (2008)). […]

α4β1 binding to VCAM-1 = biological target: T2, α4β1 binding to VCAM-1 (Homo sapiens, UniProt P05556+P13612); test: Adhesion of U937 cells to VCAM-1 in the presence of sPLA2-IIA; assay type: cell-based; details: increasing concentrations of sPLA2-IIA, 1 h, 37° C.
T2 construct: integrin α4β1, a major integrin in U937 cells; endogenous in cells; host or cells: U937
T2 sequence (P13612 34-1032): as the sequence (P13612 34-1032) above
T2 sequence (P05556 21-798): as the sequence (P05556 21-798) above
Description: as §1, §2

α4-K562 cells = test: Proliferation of α4-K562 cells (MTS assay); assay type: cell-based, human; details: serum-starved 48 h, stimulated 48 h
Description: Cells were serum-starved for 48 h and stimulated with sPLA2-IIA for 48 h. Cell proliferation was determined by MTS assays. Data is shown as means+/−SEM of triplicate experiments. α4- and αvβ3-K562 cells proliferated faster than mock-K562 cells. […] Serum-starved cells were stimulated with wt or mutant sPLA2-IIA (0.5 μg/ml) for 48 h. Data is shown as means+/−SEM of triplicate experiments. α4-K562 and αvβ3-K562 cells grew faster than mock K562 cells with wt and H47Q sPLA2-IIA (*P<0.05 by t-test).
Cell proliferation and MAP kinase activation K562 cells and human monocytic lymphoma U937 cells were maintained in RPM11640 medium supplemented with 10% FCS. Cells were plated in 96-well plates (1×10^4 cells/well), and serum-starved for 48 h at 37° C. in 5% CO2 atmosphere. Cells were then treated with or without sPLA2-IIA in medium without serum for 48 h. Cell proliferation was determined by MTS assays using the Aqueous Cell Proliferation Assay Kit (Promega). For MAP kinase activation assays, cells were serum starved in RPMI1640 medium supplemented with 0.4% FCS for 24 h, and stimulated with Wt and mutant sPLA2-IIA (0.5 μg/ml) for 10 min at 37° C. ERK1/2 activation was measured as described (Mori, S. et al., J Biol Chem, in press (2008)).

B1: wt sPLA2-IIA: Secretory phospholipase A2 group IIA, wild type, recombinant from bacteria BL21, refolded (protein)
chain: NLVNFHRMIKLTTGKEAALSYGFYGCHCGVGGRGSPKDATDRCCVTHDCCYKRLEKRGCGTKFLSYKFSNSGSRITCAKQDSCRSQLCECDKAAATCFARNKTTYNKKYQYYSNKHCRGSTPRC
modifications: left off: small tags and cut ends
Integrin α4β1
  adhesion of α4-K562 cells to immobilized wt sPLA2-IIA: better than mock-transfected K562 cells
α4β1 binding to VCAM-1
  adhesion of U937 cells to VCAM-1: suppressed adhesion
α4-K562 cells
  proliferation of α4-K562 cells: induced proliferation
